Source: patent US20250051458A1, “Methods for Treating Neurodegeneration Targeting IGF1/IGF1R” (The Schepens Eye Research Institute, Inc., priority 2021, published 2025)

Columns and labels:
DBA/2J mice = assay: DBA/2J chronic glaucoma mouse model, monthly intravitreal administration; type: in vivo; details: 10 m-old DBA/2J mice
Protocol: Adult (10-12 weeks old) male and female C57BL/6J (B6) (The Jackson Laboratory, 000664), Cx3cr1^GFP (The Jackson Laboratory, 005582), DBA/2J mice (The Jackson Laboratory, 000671) Igf1r^(lax) inducible knockout mice (The Jackson Laboratory, 012251) as well as Cx3cr1^tm2.1(cre/ERT2) mice were obtained from the Jackson Laboratory. Igf1r^(lax) mice were crossed with Cx3cr1^tm2.1(cre/ERT2) mice to generated Igf-1r specific knock out on microglia after 3 consecutive days injection of 100 mg/kg tamoxifen to mice. IGFBPL1 deficiency mice at a C57BL/6J genetic background (Knockout Mouse Project Repository, University of California at Davis) were used in following experiments. Mice of both genders were randomized into control and experimental groups. All experimental procedures and use of animals were approved and monitored by the Institute's Animal Care Committee and conform to the standards of the National Institute of Health and the Association for Research in Vision and Ophthalmology.
Adult mice were anesthetized by i.p. injection of ketamine (120 mg/kg)/xylazine (20 mg/kg) mixture using 25 G needle. […] Mice will be placed on a warm pad and monitored every 15 minutes until awake and fully sternal.
The adult mice were dark adapted in a dark adaptation chamber overnight before conducting ERG. […] The pSTR was measured from the baseline to the peak of the positive deflection. […]

retinal microglia = assay: Bulk RNA-seq gene profiling of isolated retinal microglial cultures, with or without LPS; type: cell-based, mouse
Protocol: We performed RNA-seq using four Igfbpl1−/− mice retina and four WT mice retina. The raw data was quality controlled and aligned on Mus musculus (mouse) reference genome (GRCm38) with STAR v2.5.0a (PMID: 23104886), FeatureCount (v0.6.1) (PMID: 24227677) was used to count the number of read mapped to each gene. Transcripts Per Million (TPM) was calculated for each gene based on the length of the gene and reads mapped to that gene. Differential expression analysis between Igfbpl1^−/− and WT mice was performed using the DESeq2 R package (v1.22.2) (PMID: 25516281). gene set over representation analysis for the differentially expressed genes was performed with the same above described method. We also downloaded lists of genes with function related to “Microglia”, “Astroglia”, “neuron”, and “photoreceptor” from genecard (www.genecards.org) with relevance score>5, and determined the percentage of and calculated the proportion of differentially expressed genes in each of those gene lists. […]
To investigate if IGFBPL1 directly mediates microglial function, we studied gene profiling changes in isolated microglial cultures treated by IGFBPL1. Retinal microglia were purified from mice expressing green fluorescence protein (GFP) driven under a microglial specific promoter Cx3cr1 (Cx3cr1-Gfp) using fluorescence-activated cell sorting (FACS)^12. […]

B1: IGFBPL1: insulin-like growth factor binding protein like protein 1; recombinant protein (R&D system, 4130-BL) (protein)
chain: LGLRDAGRRHPECSPCQQDRCPAPSPCPAPWISARDECGCCARCLGAEGASCGGPVGSRCGPGLVCASRASGTAPEGTGLCVCAQRGAVCGSDGRSYSSICALRLRARHAPRAHHGHLHKARDGPCEFAPVVLMPPRDIHNVTGTQVFLSCEVKAVPTPVITWKKVKHSPEGTEGLEELPGDHVNIAVQVRGGPSDHETTSWILINPLRKEDEGVYHCHAANAIGEAQSHGTVTVLDLNRYKSLYSSVPGDLL
In the case of B1, the “Survived axon in optic nerve” value (DBA/2J mice; versus vehicle-treated group) is reported as “significantly preserved”, the “RGC density and pSTR amplitude” value (DBA/2J mice; after four monthly doses) is reported as “effectively protect RGCs and functions” and the “Reversal of LPS-induced microglial gene profile (bulk RNA-seq)” value (retinal microglia; IGFBPL1 added 6 hr after LPS stimulation) is reported as “completely reverted LPS-induced microglial gene profile to the control level”. The “Microglial gene profile versus vehicle controls (bulk RNA-seq)” value (retinal microglia; IGFBPL1 alone, no LPS) was “no different between cultures treated with IGFBPL1 alone and vehicle controls”.
